To fix the notation:
B1: Hammerhead Ribozyme (parent)
chain: ACCGGAUGUGCUUUCCGGUCUGAUGAGUCCGUGAGGACGAAACAG

The series covers variants of B1. Briefly: self-cleavage, relative activity (ratio to wild type); higher = more cleavage; co-transcriptional.
As for G17A G45A, the self-cleavage was 0.413.

As to C2U U24A, the self-cleavage was 1.05.

G22A G45C: the self-cleavage turned out to be 0.436.

Consider C3U C43A, for which the self-cleavage was determined as 0.344.

With G33A A44U, the self-cleavage worked out at 0.98.

With A6G A42G, the self-cleavage was determined as 0.275.

With A6C G17C, the self-cleavage turned out to be 0.269.

On to U14A C29U, for which the self-cleavage turned out to be 0.557.

On to G27C C43U, for which the self-cleavage was determined as 0.399.

Turning to U14G A37U, the self-cleavage came out at 0.566.

For C3A G17A, the self-cleavage is 0.634.

Turning to C29U G45A, the self-cleavage came to 0.454.

As for G4A U7C, the self-cleavage stood at 0.294.

For the variant G10U A40U, the self-cleavage amounted to 0.338.

Turning to A6G C20U, the self-cleavage worked out at 0.432.

For A44C, the self-cleavage came to 0.663.

Take A1G C43U: the self-cleavage was determined as 0.597.

Turning to A1U G4C, the self-cleavage is 0.353.

Turning to G33U C38U, the self-cleavage came out at 0.995.

For G5A C11G, the self-cleavage worked out at 1.27.

As for A6G G36A, the self-cleavage amounted to 0.624.

Take A37G A42G: the self-cleavage came out at 0.264.

On to A23C A42G, for which the self-cleavage is 0.392.

On to G4C A44U, for which the self-cleavage turned out to be 0.34.

As to G35U G45C, the self-cleavage was found to be 0.466.

Turning to A1G A40U, the self-cleavage came out at 0.458.

Take G8U C38U: the self-cleavage came to 0.893.

Consider U28A U32G, for which the self-cleavage came to 0.306.

G8U U9C: the self-cleavage was 1.

Consider C2U U12C, for which the self-cleavage came out at 1.06.

With G8C G35U, the self-cleavage turned out to be 0.775.

For the variant A1U G17C, the self-cleavage was determined as 0.393.

Take U7G C30G: the self-cleavage amounted to 1.19.

Consider U12G G45C, for which the self-cleavage was determined as 0.676.

As to C43A G45U, the self-cleavage is 0.68.

Take C2A U7A: the self-cleavage was found to be 0.457.

Take G33U G35A: the self-cleavage is 0.774.

For the variant U24A G33U, the self-cleavage came out at 0.78.

As to G4U U24C, the self-cleavage was 0.549.

In the case of G4C U12A, the self-cleavage was 0.766.

C11G G33C: the self-cleavage came to 1.

Regarding C11A G25A, the self-cleavage is 0.342.

Regarding C38U A41G, the self-cleavage was 0.352.

Turning to A23C U24C, the self-cleavage came to 0.505.

In the case of U9A C15U, the self-cleavage came out at 0.848.

Consider A6G G8U, for which the self-cleavage came to 0.844.

As to G10U G25A, the self-cleavage amounted to 0.313.

For the variant A6U G35A, the self-cleavage worked out at 0.505.

Turning to C2A U13A, the self-cleavage stood at 1.08.

With C20A U24A, the self-cleavage stood at 0.764.

Regarding U7A G31C, the self-cleavage amounted to 1.28.

With C11G C43U, the self-cleavage was 0.483.

On to C29G C38A, for which the self-cleavage was 0.458.

In the case of C11G G25C, the self-cleavage worked out at 0.326.

As for A37C A41G, the self-cleavage is 0.404.

G17C A34G: the self-cleavage worked out at 0.436.

With C20G A40G, the self-cleavage amounted to 0.324.

C20G A40C: the self-cleavage is 0.322.

Take U7C U19A: the self-cleavage was determined as 0.397.

For the variant G31U G36C, the self-cleavage was found to be 0.568.

As to G4C A23G, the self-cleavage was 0.225.

Take U19A G27A: the self-cleavage was 0.34.

For the variant C2G G22U, the self-cleavage was 0.312.

As for G4C A42G, the self-cleavage came to 0.359.

G4C G31U: the self-cleavage was determined as 0.748.

With G25U C43U, the self-cleavage worked out at 0.36.

C15G G18U: the self-cleavage is 0.293.

Consider G4A C11A, for which the self-cleavage came out at 0.62.

Consider C2G G4C, for which the self-cleavage stood at 0.233.

For the variant U7C A26C, the self-cleavage was 0.373.

As to U13C G25C, the self-cleavage worked out at 0.264.

For G18C C29A, the self-cleavage came out at 0.374.

As for A23C A34U, the self-cleavage was determined as 0.298.

For A34U G35A, the self-cleavage was found to be 0.638.

With G10A G45A, the self-cleavage stood at 0.9.

With A1U C3A, the self-cleavage worked out at 0.767.

In the case of G8C U13A, the self-cleavage was determined as 1.41.

Regarding U9C A40G, the self-cleavage was 0.374.

For the variant U12C A44U, the self-cleavage was found to be 0.725.

Take G22A A23U: the self-cleavage worked out at 0.343.

With U14G A41U, the self-cleavage turned out to be 0.367.

As to G8C C11U, the self-cleavage was 1.02.

With G10A U24A, the self-cleavage turned out to be 1.12.

As to U19C G31C, the self-cleavage came to 0.657.

On to G25U G36C, for which the self-cleavage was 0.312.

Regarding U13G G17U, the self-cleavage was 0.78.

On to G8C A26U, for which the self-cleavage is 0.827.

Regarding U7G A37G, the self-cleavage was found to be 0.928.

For the variant U9C G35A, the self-cleavage stood at 0.814.

Consider U14G A42C, for which the self-cleavage was found to be 0.382.

In the case of C11G G35C, the self-cleavage came out at 0.668.

Take C11G G35U: the self-cleavage is 0.957.

Regarding A26C C38G, the self-cleavage was 0.33.

In the case of G8A A26U, the self-cleavage was found to be 0.899.

Take U9A G33A: the self-cleavage turned out to be 0.92.

With A37U G45A, the self-cleavage worked out at 0.468.

C3A U21G: the self-cleavage was found to be 0.358.

Regarding G17C G45C, the self-cleavage worked out at 0.4.

For G17C G45A, the self-cleavage came out at 0.366.

For U7G G35C, the self-cleavage was determined as 0.979.

As for G18U A37U, the self-cleavage turned out to be 0.494.

Turning to C20G U21G, the self-cleavage is 0.376.

With U7A U28G, the self-cleavage is 0.758.

On to G10C U28C, for which the self-cleavage amounted to 1.01.

For C2U A26C, the self-cleavage was determined as 0.514.

As to C3A C29G, the self-cleavage is 0.397.

In the case of U14G G45A, the self-cleavage was 0.708.

For the variant G33A G39A, the self-cleavage came out at 0.429.

In the case of C2U A40C, the self-cleavage came to 0.51.

U9G C38G: the self-cleavage is 0.486.

For the variant U21C U24G, the self-cleavage turned out to be 1.07.

Turning to A1C C43U, the self-cleavage is 0.5.

Regarding G31A A41C, the self-cleavage is 0.407.

Take U7C G35U: the self-cleavage stood at 0.439.

Consider G4U U12C, for which the self-cleavage is 0.496.

As to G10C G18C, the self-cleavage came to 0.614.

As for G5C A6G, the self-cleavage was determined as 0.437.

In the case of A6U U12G, the self-cleavage is 0.447.

Regarding A26C C29U, the self-cleavage is 0.448.

Regarding G10A G17A, the self-cleavage amounted to 0.81.

In the case of G8A U19G, the self-cleavage turned out to be 0.448.

For the variant A1C G8U, the self-cleavage turned out to be 0.465.

As for G22A A44G, the self-cleavage stood at 0.672.

For U12G G35C, the self-cleavage stood at 0.444.

For the variant U21G G22U, the self-cleavage came to 0.426.

As to C16U A34G, the self-cleavage stood at 1.08.

For the variant A40G G45C, the self-cleavage stood at 0.466.

Regarding G22A A42G, the self-cleavage is 0.351.

Consider U24C C38A, for which the self-cleavage was found to be 0.676.

C16A G25C: the self-cleavage was found to be 0.372.

For U24C A34U, the self-cleavage is 0.824.

Consider C15G C30G, for which the self-cleavage is 0.618.

G25A C38G: the self-cleavage was determined as 0.33.

In the case of A1C A34G, the self-cleavage worked out at 0.385.

On to C2G G31C, for which the self-cleavage came to 0.376.

As for U13G C20G, the self-cleavage turned out to be 0.244.

Take A1U U14C: the self-cleavage came to 0.531.

Consider G5A A44U, for which the self-cleavage worked out at 0.532.

Consider A1G A26G, for which the self-cleavage amounted to 0.397.

For the variant U24C C43A, the self-cleavage was 0.271.

Regarding A1G U21A, the self-cleavage is 0.968.

Consider U19C G33U, for which the self-cleavage is 0.792.

For the variant C15G A41C, the self-cleavage was 0.398.

Turning to G31C A37U, the self-cleavage was 0.587.

For G27A C38A, the self-cleavage came to 0.871.

Consider C29G A42C, for which the self-cleavage was found to be 0.407.

Consider C3U A23U, for which the self-cleavage amounted to 0.347.

Consider U7G A44U, for which the self-cleavage amounted to 0.422.

In the case of A40G A42C, the self-cleavage came out at 0.266.

Take G22A G31U: the self-cleavage was determined as 0.427.

For G5C A26U, the self-cleavage was 0.339.

In the case of C2A G45U, the self-cleavage worked out at 0.417.

As to C15A C20A, the self-cleavage was found to be 0.316.

For G8U G31C, the self-cleavage worked out at 1.18.

Take G4U G25C: the self-cleavage was 0.339.

Regarding G25A C30G, the self-cleavage was determined as 0.305.

As for G25A C30U, the self-cleavage was found to be 0.331.

For C16U C43U, the self-cleavage worked out at 0.495.

Turning to U14G G35U, the self-cleavage worked out at 0.611.

With U21A A44G, the self-cleavage amounted to 0.932.

Turning to U13G U19C, the self-cleavage worked out at 0.767.

Regarding C16U G35U, the self-cleavage turned out to be 0.735.

Turning to A1U G10C, the self-cleavage is 0.6.

Turning to A26U G39C, the self-cleavage was determined as 0.378.

As to G35U A44G, the self-cleavage turned out to be 0.943.

Consider U24C G45C, for which the self-cleavage was 0.641.

For the variant G17U A44C, the self-cleavage is 0.495.

For the origin of these results see the RNAGym collection of RNA variant scans (doi:10.7554/elife.80360).
